± gives the standard deviation of the averaged measurements.
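Further: PSI is a weighted mean of sequencing reads over stability bins, variants kept only with over 10 reads, mCherry proximal and sfGFP distal, peptide attached via GGGS linker.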

The test system of this data set is Saccharomyces cerevisiae. Description: protein stability index of tFT-peptide fusion (C-terminal peptide) (PSI (0-1 scale)); higher = more stable (slower turnover). The note with it: genetic background: wild type; temperature: 30 C.
Turning to RLLPPSLAQRNN, the protein stability index came out at 0.5909 ± 0.0011.
Next, RLLRDFQSVGGD: 0.6498 ± 0.0014; RLPAPPPHPPPP: 0.7037 ± 0.0013; RLPPGATPYPPR: 0.711 ± 0.013.
Next, RLPPRPPPRPPT: 0.6514 ± 0.006.
Consider RLPRSPPLPSCR, for which the protein stability index is 0.726 ± 0.016.
For the sequence RLPSAPPRQPTH, the protein stability index came to 0.667 ± 0.061.
Next, RLRPPPRTLPTP: 0.722 ± 0.011; RLRQTLPTWVTT: 0.665 ± 0.015; RLRSSTAAAAIV: 0.713 ± 0.082.
As for RLRSWLGIALFL, the protein stability index came out at 0.642 ± 0.0067.
As for RLSSLRAFSLRS, the figure is 0.721 ± 0.026; as for RLSSLSPFLVLS, 0.589 ± 0.0084.
As for RLTALVYFISPL, the figure is 0.597 ± 0.017; as for RLVFDTGPPFIN, 0.657 ± 0.042; as for RLWFPSARLRFT, 0.678 ± 0.06.
In the case of RMGAEDTGCRRP, the protein stability index is 0.657 ± 0.062.
In turn, RMINHGNKAKFS yielded a protein stability index of 0.662 ± 0.016.
Next, RMIQKFGLGVVV: 0.5613 ± 0.0047; RMNSCVLLDGFA: 0.687 ± 0.03.
The sequence RNFAPPFLPSPH returned a protein stability index of 0.711 ± 0.066.
The sequence RNIKIGKYMKRI yielded a protein stability index of 0.729 ± 0.034.
RNIQKLNKIKKK had a protein stability index of 0.753 ± 0.15.
Next, RNNRQAREKKKQ: 0.701 ± 0.15; RNPLDGDSGSRG: 0.699 ± 0.0076.
Next, RNRDKKGDMILK: 0.691 ± 0.0086.
As for RNRRKTLMETRS, the figure is 0.695 ± 0.082; as for RNSDPRLGGNTF, 0.687 ± 0.052; as for RNTRAPTRNVPE, 0.674 ± 0.028.
Consider RNTYKKREKNKK, for which the protein stability index stood at 0.7363 ± 0.0025.
Next, RNWCHGTVLNRL: 0.736 ± 0.13; RPASPASSPFFP: 0.70509 ± 0.00065.
Next, RPCSVPFSNTSP: 0.666 ± 0.0067.
As for RPEKGLESGQRV, the protein stability index was found to be 0.69 ± 0.064.
The sequence RPLALHSYPCSP yielded a protein stability index of 0.6771 ± 0.00072.
Next, RPLPASTTLCVL: 0.689 ± 0.11; RPLSSPPTRSRA: 0.751 ± 0.038.
Turning to RPLVSRLPIFIR, the protein stability index turned out to be 0.506 ± 0.014.
As for RPPCLRPPPPPL, the figure is 0.727 ± 0.012; as for RPPIGTLCSINF, 0.614 ± 0.13; as for RPPNPPPALPPL, 0.701 ± 0.056.
Next, RPPPLPPRPSPP: 0.752 ± 0.12; RPPPPPPPPPSP: 0.723 ± 0.089; RPPSPILPSSSP: 0.714 ± 0.077.
Next, RPPVPSLLPEPT: 0.6313 ± 0.0043; RPRPPLASPSPP: 0.7005 ± 0.0013; RPRYITQGLPLL: 0.738 ± 0.026.
In turn, RPSGFVGSDVRV returned a protein stability index of 0.629 ± 0.071.
Next, RPSNPPTKSQPS: 0.665 ± 0.019; RPSPPALPRFLL: 0.703 ± 0.0073; RPSTHPPATPPR: 0.695 ± 0.07.
As for RPSTSRKVKIDV, the figure is 0.663 ± 0.066; as for RPTRSLYLLPLI, 0.699 ± 0.019.
In turn, RQESYYLYHTAR came in with a protein stability index of 0.717 ± 0.032.
Next, RQLPPRAPAARG: 0.661 ± 0.028.
Next, RQNPRLPPPFQP: 0.731 ± 0.052; RQTNEHNNQNER: 0.741 ± 0.082; RRCCLDPGGLLS: 0.607 ± 0.0078.
As for RRCGETTEQTVR, the figure is 0.71 ± 0.059.
Consider RRCRPPTRRTKE, for which the protein stability index was found to be 0.587 ± 0.053.
The sequence RRCSCGFLCIDS displayed a protein stability index of 0.672 ± 0.14.
As for RRDELINVVKRT, the protein stability index came out at 0.717 ± 0.072.
Next, RRDIPLSPVAFS: 0.702 ± 0.031.
Next, RREKGEARGRGG: 0.618 ± 0.013; RREKRPMKKGGR: 0.6126 ± 0.002; RRERQNEKMTYH: 0.656 ± 0.078.
As for RRESQRRYRRML, the figure is 0.714 ± 0.059; as for RRFLRRISAFAS, 0.558 ± 0.06; as for RRFQYLTENYQK, 0.6208 ± 0.0047.
Consider RRGAGCAAVGLG, for which the protein stability index was determined as 0.618 ± 0.024.
As to RRGRGGGRRVDA, the protein stability index came to 0.731 ± 0.021.
As for RRKGRLTAGWGR, the figure is 0.713 ± 0.025; as for RRLFVMDKRKRK, 0.716 ± 0.033.
RRLSVPFSPSAL displayed a protein stability index of 0.733 ± 0.032.
Next, RRMHLNMKEREL: 0.896 ± 0.054; RRMSQQCLPRQR: 0.739 ± 0.047.
As for RRNGVVGRLGWV, the figure is 0.7 ± 0.051.
As for RRPCTSSHAKAP, the figure is 0.692 ± 0.021.
For the sequence RRPQPPHKTAMP, the protein stability index worked out at 0.701 ± 0.078.
As for RRRQAEEDERNG, the figure is 0.658 ± 0.07; as for RRRTDDSTPGRA, 0.686 ± 0.025.
Next, RRSSLGIYWIYS: 0.61 ± 0.037; RRTTGLGWSGRP: 0.644 ± 0.025.
As for RRVNDLGPPMRN, the figure is 0.779 ± 0.092.
In turn, RRVRRRRTGGAW displayed a protein stability index of 0.669 ± 0.005.
As for RRVVIVSGWGWG, the figure is 0.591 ± 0.064; as for RRWSPPGLGCIE, 0.735 ± 0.019.
Next, RSETGYGTSWGA: 0.627 ± 0.026; RSFRCWVQGYCG: 0.654 ± 0.044; RSGLARPSPLTR: 0.67445 ± 0.00024.
As for RSGVSCPRVDDR, the figure is 0.643 ± 0.05; as for RSGWRLLHLTTL, 0.613 ± 0.013; as for RSHPTPQAHPSA, 0.728 ± 0.051.
As for RSKPIQAIPNPV, the protein stability index worked out at 0.69 ± 0.03.
Next, RSLRLPPRTPLP: 0.652 ± 0.04; RSLVAATLSSLG: 0.735 ± 0.045.
As for RSPNSSPPPSIS, the figure is 0.648 ± 0.014; as for RSPPHSNLAHCI, 0.684 ± 0.037; as for RSPPPVPELTRL, 0.7042 ± 0.0051.
RSPYSSLHNPLC: the protein stability index turned out to be 0.706 ± 0.016.
Next, RSRSIPTTLCLP: 0.655 ± 0.026.
In turn, RSSLAVSTKVER yielded a protein stability index of 0.639 ± 0.02.
As for RSSPPPRHDPSP, the figure is 0.696 ± 0.088.
In turn, RSSRGGFAFVYR had a protein stability index of 0.676 ± 0.03.
Next, RSSVTIIGDINK: 0.619 ± 0.016; RSTGFHRVSCGI: 0.72 ± 0.06; RSTTRSTLSLHV: 0.701 ± 0.021.
Consider RSVIEHKMRKKR, for which the protein stability index was found to be 0.682 ± 0.026.
As for RTAYLLRCLTTD, the figure is 0.681 ± 0.026; as for RTGKVKNINISI, 0.71064 ± 0.00038; as for RTHRKNRRYKKN, 0.639 ± 0.0072.
As for RTKLFGIVGRQL, the figure is 0.659 ± 0.036; as for RTLWGYCPRSPL, 0.718 ± 0.021.
As for RTRKARTHGRAQ, the figure is 0.679 ± 0.0092.
RTSEAGKQHEWK displayed a protein stability index of 0.695 ± 0.0074.
As for RTSKSCVEFTMG, the figure is 0.661 ± 0.011.

The values are drawn from the supplement of paper PMC10724198.
